The supplement of paper PMC10065799, “High-throughput profiling of sequence recognition by tyrosine kinases and SH2 domains using bacterial peptide display” (eLife, 2023)

Columns and labels:
Fyn = Fyn (UniProt P06241); experiment: phosphorylation enrichment, bacterial display (enrichment ratio); higher = better substrate or ligand; peptides without Tyr show the background
c-Abl (mouse) = experiment: as above
Hck = Hck (UniProt P08631); experiment: as above
Fes = Fes (UniProt P07332); experiment: as above
FGFR3 = FGFR3 (UniProt P22607); experiment: as above
c-Src = experiment: as above
FGFR1 = FGFR1 (UniProt P11362); experiment: as above
Jak2 = Jak2 (UniProt O60674); experiment: as above
EPHB2 = EPHB2 (UniProt P29323); experiment: as above
EPHB1 = EPHB1 (UniProt P54762); experiment: as above
AncSZ = experiment: as above
Fer (mouse) = experiment: as above
MERTK = MERTK (UniProt Q12866); experiment: as above
Grb2 SH2 = Grb2 SH2 (UniProt P62993); experiment: SH2 binding enrichment of the phosphorylated peptide, bacterial display (enrichment ratio); higher = better substrate or ligand; peptides without Tyr show the background
SHP2-C SH2 = experiment: as above
c-Src SH2 = experiment: as above
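Throughout, for SH2 binding enrichment of the phosphorylated peptide, bacterial display: peptide library displayed on the E. coli surface as eCPX fusions, selected cells deep-sequenced, score is each peptide's frequency after selection divided by its frequency in the input.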
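Throughout, for phosphorylation enrichment, bacterial display: 11-residue human phosphosite peptides and single-mutation variants displayed on the E. coli surface, counted by deep sequencing, each peptide's frequency after selection divided by its frequency in the unselected input library; frequency after pTyr selection over input frequency; kinase dosed for 20-30% of maximal phosphorylation in three min.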

Chain of FGFR3 (P22607 whole entry, looked up): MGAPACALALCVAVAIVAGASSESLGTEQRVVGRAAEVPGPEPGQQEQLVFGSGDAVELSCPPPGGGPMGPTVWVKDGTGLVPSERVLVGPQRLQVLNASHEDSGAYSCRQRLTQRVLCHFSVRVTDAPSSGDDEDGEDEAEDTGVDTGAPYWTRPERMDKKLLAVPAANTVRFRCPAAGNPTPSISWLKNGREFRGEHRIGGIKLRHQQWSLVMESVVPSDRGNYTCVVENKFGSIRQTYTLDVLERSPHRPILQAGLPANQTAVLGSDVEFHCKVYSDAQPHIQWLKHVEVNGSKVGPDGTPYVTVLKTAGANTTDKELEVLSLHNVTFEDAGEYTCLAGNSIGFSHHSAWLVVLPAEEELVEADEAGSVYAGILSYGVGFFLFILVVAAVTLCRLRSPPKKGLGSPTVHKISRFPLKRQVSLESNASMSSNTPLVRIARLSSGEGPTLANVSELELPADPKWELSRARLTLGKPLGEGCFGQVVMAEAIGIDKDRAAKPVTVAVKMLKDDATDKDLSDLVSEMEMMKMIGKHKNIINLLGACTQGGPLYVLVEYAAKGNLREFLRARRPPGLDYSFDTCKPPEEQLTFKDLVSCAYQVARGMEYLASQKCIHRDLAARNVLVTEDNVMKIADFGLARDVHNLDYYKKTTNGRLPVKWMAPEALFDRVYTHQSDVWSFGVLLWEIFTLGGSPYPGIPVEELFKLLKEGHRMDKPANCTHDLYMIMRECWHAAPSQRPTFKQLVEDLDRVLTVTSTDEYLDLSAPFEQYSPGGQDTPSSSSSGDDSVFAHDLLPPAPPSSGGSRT
Chain of Fyn (P06241 whole entry, looked up): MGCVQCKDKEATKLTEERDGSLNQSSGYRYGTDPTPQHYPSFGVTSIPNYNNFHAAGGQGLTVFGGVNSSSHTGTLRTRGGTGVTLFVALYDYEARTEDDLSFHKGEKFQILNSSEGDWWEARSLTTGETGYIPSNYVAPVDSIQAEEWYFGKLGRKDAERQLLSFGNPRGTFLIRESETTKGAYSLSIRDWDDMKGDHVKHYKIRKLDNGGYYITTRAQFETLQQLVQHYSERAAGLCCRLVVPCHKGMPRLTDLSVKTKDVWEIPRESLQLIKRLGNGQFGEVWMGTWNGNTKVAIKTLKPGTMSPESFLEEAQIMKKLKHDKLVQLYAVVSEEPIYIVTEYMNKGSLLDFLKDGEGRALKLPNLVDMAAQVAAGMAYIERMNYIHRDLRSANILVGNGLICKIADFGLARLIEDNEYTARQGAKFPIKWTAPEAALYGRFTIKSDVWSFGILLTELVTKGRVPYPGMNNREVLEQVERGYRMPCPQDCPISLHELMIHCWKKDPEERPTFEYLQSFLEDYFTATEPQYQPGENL
Chain of Hck (P08631 whole entry, looked up): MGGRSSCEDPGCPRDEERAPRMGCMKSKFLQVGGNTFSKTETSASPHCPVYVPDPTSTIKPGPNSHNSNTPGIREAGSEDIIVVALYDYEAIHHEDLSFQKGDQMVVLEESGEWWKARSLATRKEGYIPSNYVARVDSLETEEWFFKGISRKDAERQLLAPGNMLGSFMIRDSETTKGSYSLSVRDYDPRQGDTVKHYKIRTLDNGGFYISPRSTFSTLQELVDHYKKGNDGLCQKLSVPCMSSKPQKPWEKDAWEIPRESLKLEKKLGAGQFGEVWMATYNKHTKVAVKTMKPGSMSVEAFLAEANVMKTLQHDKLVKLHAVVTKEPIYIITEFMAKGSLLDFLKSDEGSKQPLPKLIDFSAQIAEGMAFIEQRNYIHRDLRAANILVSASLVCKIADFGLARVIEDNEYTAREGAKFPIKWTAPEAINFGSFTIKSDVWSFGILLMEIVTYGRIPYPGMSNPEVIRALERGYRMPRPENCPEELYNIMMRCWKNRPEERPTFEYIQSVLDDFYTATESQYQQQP
Chain of MERTK (Q12866 whole entry, looked up): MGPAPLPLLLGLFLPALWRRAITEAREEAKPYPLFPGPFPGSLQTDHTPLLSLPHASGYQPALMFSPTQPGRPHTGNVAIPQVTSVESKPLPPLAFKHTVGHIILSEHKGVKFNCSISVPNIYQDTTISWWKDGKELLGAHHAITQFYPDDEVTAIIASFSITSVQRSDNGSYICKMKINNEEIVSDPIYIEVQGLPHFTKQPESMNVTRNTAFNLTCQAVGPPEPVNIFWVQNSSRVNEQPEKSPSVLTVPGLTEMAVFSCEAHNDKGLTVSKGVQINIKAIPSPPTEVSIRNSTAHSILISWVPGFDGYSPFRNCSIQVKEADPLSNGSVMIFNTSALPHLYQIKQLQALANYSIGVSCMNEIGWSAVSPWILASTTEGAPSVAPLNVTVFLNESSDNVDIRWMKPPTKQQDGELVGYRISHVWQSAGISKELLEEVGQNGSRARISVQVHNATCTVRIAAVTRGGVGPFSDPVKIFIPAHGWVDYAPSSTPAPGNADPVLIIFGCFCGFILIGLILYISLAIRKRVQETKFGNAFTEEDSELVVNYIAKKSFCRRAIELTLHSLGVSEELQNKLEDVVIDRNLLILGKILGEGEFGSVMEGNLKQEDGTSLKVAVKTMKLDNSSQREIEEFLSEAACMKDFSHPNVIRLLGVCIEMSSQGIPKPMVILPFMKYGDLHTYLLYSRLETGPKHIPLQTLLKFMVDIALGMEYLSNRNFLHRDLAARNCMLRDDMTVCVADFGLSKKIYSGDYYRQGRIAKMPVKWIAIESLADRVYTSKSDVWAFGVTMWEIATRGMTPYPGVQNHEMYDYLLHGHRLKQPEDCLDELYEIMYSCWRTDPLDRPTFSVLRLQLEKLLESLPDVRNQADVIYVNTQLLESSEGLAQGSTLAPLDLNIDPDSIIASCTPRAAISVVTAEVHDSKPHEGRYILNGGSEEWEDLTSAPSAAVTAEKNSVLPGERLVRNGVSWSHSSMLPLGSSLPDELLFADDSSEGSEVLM
Chain of FGFR1 (P11362 whole entry, looked up): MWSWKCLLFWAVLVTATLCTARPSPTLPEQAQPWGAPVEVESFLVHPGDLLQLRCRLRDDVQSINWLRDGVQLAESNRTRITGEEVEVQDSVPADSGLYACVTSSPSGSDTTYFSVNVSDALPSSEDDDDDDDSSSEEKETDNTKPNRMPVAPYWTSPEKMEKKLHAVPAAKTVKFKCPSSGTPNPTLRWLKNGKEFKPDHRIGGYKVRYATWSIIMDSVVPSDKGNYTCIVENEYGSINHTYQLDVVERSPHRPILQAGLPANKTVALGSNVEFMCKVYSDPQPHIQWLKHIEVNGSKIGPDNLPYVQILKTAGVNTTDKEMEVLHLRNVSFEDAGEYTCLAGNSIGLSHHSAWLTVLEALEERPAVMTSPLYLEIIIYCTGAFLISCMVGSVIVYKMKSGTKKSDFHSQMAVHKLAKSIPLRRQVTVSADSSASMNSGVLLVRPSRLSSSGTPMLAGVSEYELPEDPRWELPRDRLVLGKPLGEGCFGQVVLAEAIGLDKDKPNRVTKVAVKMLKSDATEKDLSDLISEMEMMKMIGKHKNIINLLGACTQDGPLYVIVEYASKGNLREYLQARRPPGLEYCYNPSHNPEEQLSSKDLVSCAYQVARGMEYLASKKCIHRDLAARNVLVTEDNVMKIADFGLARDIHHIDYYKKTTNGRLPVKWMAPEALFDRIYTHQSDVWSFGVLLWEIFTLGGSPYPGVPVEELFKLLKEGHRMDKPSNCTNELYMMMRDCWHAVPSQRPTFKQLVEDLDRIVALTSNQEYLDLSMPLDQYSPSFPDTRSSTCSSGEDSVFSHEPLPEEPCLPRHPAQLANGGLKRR
Chain of EPHB1 (P54762 whole entry, looked up): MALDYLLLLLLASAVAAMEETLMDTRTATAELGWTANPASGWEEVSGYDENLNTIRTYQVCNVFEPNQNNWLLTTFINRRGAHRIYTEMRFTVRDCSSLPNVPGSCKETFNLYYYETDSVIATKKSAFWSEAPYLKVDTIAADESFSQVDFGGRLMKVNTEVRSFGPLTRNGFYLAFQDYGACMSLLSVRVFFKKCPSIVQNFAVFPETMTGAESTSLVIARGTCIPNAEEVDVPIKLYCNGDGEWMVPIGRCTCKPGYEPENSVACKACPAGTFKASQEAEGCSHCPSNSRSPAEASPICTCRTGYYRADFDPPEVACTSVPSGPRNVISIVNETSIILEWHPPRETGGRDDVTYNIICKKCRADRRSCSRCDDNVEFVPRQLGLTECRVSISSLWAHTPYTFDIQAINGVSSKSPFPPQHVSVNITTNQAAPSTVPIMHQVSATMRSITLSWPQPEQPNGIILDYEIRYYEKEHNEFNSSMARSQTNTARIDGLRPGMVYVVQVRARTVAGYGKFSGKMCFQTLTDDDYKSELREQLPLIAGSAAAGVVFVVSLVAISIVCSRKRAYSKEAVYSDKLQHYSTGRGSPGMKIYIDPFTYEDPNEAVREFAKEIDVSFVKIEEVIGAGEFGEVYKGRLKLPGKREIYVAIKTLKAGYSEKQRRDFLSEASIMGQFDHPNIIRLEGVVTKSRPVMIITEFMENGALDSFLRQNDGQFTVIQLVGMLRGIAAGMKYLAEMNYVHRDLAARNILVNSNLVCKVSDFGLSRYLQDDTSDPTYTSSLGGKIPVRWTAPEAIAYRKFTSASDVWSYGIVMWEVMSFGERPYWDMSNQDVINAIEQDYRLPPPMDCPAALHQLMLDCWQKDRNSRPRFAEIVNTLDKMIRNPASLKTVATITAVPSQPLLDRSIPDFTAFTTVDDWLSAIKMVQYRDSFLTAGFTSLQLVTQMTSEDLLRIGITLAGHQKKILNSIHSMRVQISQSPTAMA
Chain of Grb2 SH2 (P62993 whole entry, looked up): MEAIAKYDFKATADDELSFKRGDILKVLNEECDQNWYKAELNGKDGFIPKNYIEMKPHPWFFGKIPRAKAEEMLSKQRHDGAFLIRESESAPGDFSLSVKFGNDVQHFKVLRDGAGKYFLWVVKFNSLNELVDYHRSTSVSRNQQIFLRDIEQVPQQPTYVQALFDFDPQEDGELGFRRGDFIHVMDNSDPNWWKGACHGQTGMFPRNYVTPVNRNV

Row | Sequence | phosphorylation enrichment (Fyn) | phosphorylation enrichment (c-Abl (mouse)) | phosphorylation enrichment (Hck) | phosphorylation enrichment (Fes) | phosphorylation enrichment (FGFR3) | phosphorylation enrichment (c-Src) | phosphorylation enrichment (FGFR1) | phosphorylation enrichment (Jak2) | phosphorylation enrichment (EPHB2) | phosphorylation enrichment (EPHB1) | phosphorylation enrichment (AncSZ) | phosphorylation enrichment (Fer (mouse)) | phosphorylation enrichment (MERTK) | SH2 binding enrichment (Grb2 SH2) | SH2 binding enrichment (SHP2-C SH2) | SH2 binding enrichment (c-Src SH2)
1 | THQKSYQPGRK [CEFIP_Y210_N208K] | 0.371 | 0.35 | 0.52 | 0.472 | 0.362 | 0.322 | 0.433 | 0.349 | 0.432 | 0.273 | 0.437 | 0.464 | 0.308 | 0.887 | 0.408 | 0.514
2 | TIMTNYNPNYC [ALK_Y1092_D1091N] | 0.565 | 0.558 | 0.548 | 0.901 | 0.549 | 0.45 | 0.545 | 0.639 | 0.5 | 0.619 | 0.758 | 0.46 | 0.407 | 1.12 | 0.715 | 0.591
3 | TKGMIYGGGGG [PSME1_Y249] | 0.49 | 0.613 | 0.556 | 0.505 | 0.377 | 0.535 | 0.457 | 0.501 | 0.416 | 0.339 | 0.494 | 0.431 | 0.433 | 1.05 | 0.812 | 0.483
4 | TLAHKYHGGGG [HBB_Y146_A141T] | 0.497 | 1.03 | 0.681 | 0.973 | 0.494 | 0.675 | 0.611 | 1.1 | 0.398 | 0.46 | 0.652 | 0.436 | 0.577 | 0.567 | 0.67 | 0.558
5 | TLMNAYSSRCH [KIF11_Y231_S235C] | 0.571 | 0.738 | 0.496 | 0.836 | 0.637 | 0.471 | 0.492 | 0.776 | 0.553 | 0.602 | 1 | 0.535 | 0.448 | 0.943 | 0.726 | 0.581
6 | TLQSMYGCDVG [HLA-B_Y123] | 0.552 | 0.639 | 0.525 | 0.979 | 0.667 | 0.661 | 0.497 | 0.843 | 0.71 | 0.598 | 0.935 | 0.612 | 0.406 | 1.08 | 0.812 | 0.559
7 | TMEDSYRKQVV [KRAS_Y40_I36M] | 0.273 | 0.594 | 0.425 | 0.774 | 0.595 | 0.38 | 0.366 | 0.663 | 0.367 | 0.556 | 0.69 | 0.403 | 0.411 | 0.728 | 0.48 | 0.356
8 | TPIYPYLLPKS [PLD2_Y580_T577I] | 0.435 | 0.65 | 0.547 | 0.776 | 0.698 | 0.624 | 0.812 | 1.59 | 0.559 | 0.578 | 0.837 | 0.426 | 1.8 | 0.943 | 0.855 | 1.17
9 | TRDTDYQMTKR [ADA_Y308_L304R] | 0.377 | 0.501 | 0.373 | 0.646 | 0.7 | 0.31 | 0.394 | 0.525 | 0.446 | 0.383 | 0.639 | 0.359 | 0.344 | 0.821 | 0.447 | 0.544
10 | TRNVRYLTLDI [AKR1C2_Y305_N300T] | 0.407 | 0.557 | 0.487 | 0.887 | 0.634 | 0.384 | 0.421 | 0.684 | 0.521 | 0.787 | 0.633 | 0.429 | 0.372 | 0.985 | 6.49 | 1.73
11 | TRSFKYLLLSM [NF1_Y491_YF] | 0.386 | 0.706 | 0.44 | 1.07 | 0.548 | 0.426 | 0.43 | 0.977 | 0.51 | 0.663 | 1.12 | 0.38 | 0.399 | 1.05 | 1.21 | 1.05
12 | TSAEGYQDVRD [ABLIM1_Y439_P434T] | 0.679 | 0.766 | 0.691 | 1.36 | 0.659 | 0.602 | 0.77 | 1.16 | 0.774 | 0.73 | 1.17 | 0.551 | 0.517 | 0.909 | 0.779 | 4.85
13 | TSFSGYRCHRH [NKAPL_Y94_Y96C_YF] | 0.419 | 0.562 | 0.469 | 0.727 | 0.45 | 0.414 | 0.552 | 0.718 | 0.486 | 0.576 | 0.703 | 0.464 | 0.469 | 1.01 | 0.901 | 0.661
14 | TSKLNYLDPRI [TOP1_Y723] | 0.371 | 0.407 | 0.3 | 0.599 | 0.585 | 0.405 | 0.919 | 0.506 | 1.7 | 4.39 | 0.534 | 0.241 | 0.359 | 0.813 | 1.09 | 0.554
15 | TTANRYLKVSD [MYOM2_Y871] | 0.404 | 0.526 | 0.607 | 0.641 | 0.41 | 0.486 | 0.453 | 0.492 | 0.432 | 0.38 | 0.546 | 0.484 | 0.409 | 1.2 | 0.731 | 0.643
16 | TTIVSYRASQP [MKI67_Y1737_K1734I] | 0.481 | 0.654 | 0.481 | 0.663 | 0.477 | 0.539 | 0.441 | 0.6 | 0.305 | 0.454 | 0.591 | 0.457 | 0.438 | 0.688 | 0.74 | 0.532
17 | TTPGPHRSIYF [MPG_Y71_Y71H] | 0.359 | 0.538 | 0.411 | 0.577 | 0.526 | 0.458 | 0.579 | 0.357 | 0.444 | 0.355 | 0.569 | 0.396 | 0.479 | 0.71 | 0.484 | 0.503
18 | TVFENYVADIE [RHOA_Y42] | 0.58 | 0.861 | 0.588 | 1.15 | 0.925 | 0.521 | 0.642 | 1.46 | 0.664 | 0.647 | 1.42 | 0.513 | 0.631 | 0.798 | 0.618 | 0.541
19 | TVLEPYTDPFF [ZC3H18_Y367_A368T_YF] | 0.535 | 0.685 | 0.501 | 1.09 | 0.909 | 0.514 | 1.29 | 1.09 | 0.429 | 0.463 | 1.25 | 0.438 | 0.519 | 0.791 | 0.649 | 1.98
20 | TYTVSYLPDMS [FLNC_Y1602] | 0.568 | 0.55 | 0.582 | 0.874 | 0.656 | 0.561 | 0.512 | 0.903 | 0.705 | 0.528 | 1.05 | 0.491 | 0.733 | 0.792 | 0.623 | 0.375
21 | VATRWYRSPEP [CDKL5_Y177_L182P] | 0.525 | 0.397 | 0.431 | 0.719 | 0.523 | 0.394 | 0.482 | 0.565 | 0.537 | 0.55 | 0.638 | 0.379 | 0.421 | 0.796 | 0.629 | 0.422
22 | VDEVLYEDSSA [MTHFS_Y197_T202A] | 0.502 | 0.923 | 0.716 | 1.16 | 0.609 | 0.647 | 0.679 | 1.29 | 0.577 | 0.637 | 1.47 | 2.08 | 0.508 | 0.834 | 0.979 | 0.551
23 | VDSIEYEVASQ [SLC7A7_Y7_T5I] | 0.491 | 0.821 | 0.567 | 1.18 | 0.729 | 0.466 | 0.451 | 1.36 | 0.618 | 0.594 | 1.22 | 0.464 | 0.545 | 0.793 | 0.741 | 0.452
24 | VECRVYAEDPF [PCCA_Y401_YF] | 0.553 | 1.11 | 0.578 | 1.68 | 0.845 | 0.693 | 0.495 | 1.6 | 0.677 | 0.766 | 1.43 | 0.669 | 0.481 | 0.674 | 0.426 | 0.54
25 | VEDHYYEGGIG [TKT_Y564] | 0.559 | 0.837 | 0.636 | 1.11 | 1.73 | 0.628 | 1.59 | 1.05 | 0.65 | 0.581 | 1.1 | 0.688 | 0.524 | 0.883 | 0.833 | 3.89
26 | VEDQYYCVDCY [FHL1_Y208] | 2.34 | 1.1 | 1.46 | 1.48 | 10.3 | 2.77 | 12 | 1.86 | 0.754 | 1.02 | 5.02 | 1.11 | 3.19 | 1.35 | 1.47 | 1.42
27 | VEKGSYSALRA [ABCC2_Y845_L849R] | 0.34 | 0.438 | 0.351 | 0.551 | 0.396 | 0.314 | 0.356 | 0.551 | 0.296 | 0.348 | 0.43 | 0.338 | 0.325 | 0.823 | 1.04 | 0.555
28 | VFPIDYYFPPQ [AR_Y552_L548F] | 0.816 | 0.922 | 0.851 | 0.914 | 12.9 | 1.34 | 13.8 | 6.13 | 3.65 | 3.22 | 5.64 | 0.536 | 2.24 | 1.24 | 1.08 | 1.04
29 | VKMLEYLGKDV [CASP5_Y74] | 0.454 | 0.57 | 0.491 | 0.726 | 0.453 | 0.337 | 0.375 | 0.591 | 0.651 | 0.422 | 1.07 | 0.413 | 0.504 | 0.662 | 0.77 | 0.389
